# Experimental data from US20210380703A1 (RIGEL PHARMACEUTICALS, published 2021).
# Numbering of substitutions follows the chain as printed.
# B1: 370_B11 (antibody, V domains shown)
# VH: EVQLLESGGGLVQPGGSLRLSCAASGFTFDSYSMNWVRQAPGKGLEWVSGINYNSGYTSYADSVKGRFTISRDNSKNTLYLQMNSLRAEDTAVYYCARGANWHDTHLDYWGQGTLVTVSS
# VL: DIQMTQSPSSLSASVGDRVTITCRASQSILSYLNWYQQKPGKAPKLVIYAATSRHSGVPSRFSGSGSGTDFTLTISSLQPEDFATYYCQQGYDLPLTFGGGTKVEIK
# notes: Group III
# B2: 370_F03 (antibody, V domains shown)
# VH: B1 VH with D30S, S33G, G50S, T58K, H106A
# VL: B1 VL with L33V, V47L, H55A, G91S, D93E, L94N
# notes: Group III
# B3: 371_G09 (antibody, V domains shown)
# VH: B1 VH with D30S, S49A, G50N, S55G, S59G, H106A
# VL: B1 VL with H55A, G91S, Y92D, D93S, L94T
# notes: Group III
# B4: 371_B12 (antibody, V domains shown)
# VH: B1 VH with D30S, S31D, S49A, H106A
# VL: B1 VL with L30V, S31T, G91S, D93N, L94N
# notes: Group III
# B5: 371_A10 (antibody, V domains shown)
# VH: B1 VH with S31D, S55G, T58K, S59G, H106A
# VL: B1 VL with L30V, H55A, G91S, D93E, L94N
# notes: Group III
# B6: 371_E06 (antibody, V domains shown)
# VH: B1 VH with D30S, S55G, H106A
# VL: B1 VL with L30S, S31T, V47L, A51V, R54L, G91S, D93E, L94S
# notes: Group III
# B7: 370_H07 (antibody, V domains shown)
# VH: B1 VH with D30S, S49A, S55G, T58K, H106A
# VL: B1 VL with V47L, R54L, H55A, G91S, Y92D, D93S, L94S
# notes: Group III
# B8: 371_E10 (antibody, V domains shown)
# VH: B1 VH with S49A, S55G, H106A
# VL: B1 VL with L30S, S31T, V47L, A51V, H55A, G91S, D93N, L94S
# notes: Group III
# B9: 371_C12 (antibody, V domains shown)
# VH: B1 VH with D30S, S49A, T58K
# VL: B1 VL with L30V, L33V, V47L, H55A, G91S, L94T
# notes: Group III
# B10: 371_B03 (antibody, V domains shown)
# VH: B1 VH with D30S, S33G, N35H, S49A, G50S, S55G
# VL: B1 VL with L33V, V47L, A51T, H55A, G91S, L94N
# notes: Group III
# B11: 370_B12 (antibody, V domains shown)
# VH: B1 VH with D30S, S31D, S55G, T58K, S59G, H106A
# VL: B1 VL with L33V, A51T, H55A, G91S, D93E, L94T
# notes: Group III
# B12: 371_C04 (antibody, V domains shown)
# VH: B1 VH with S33G, T58K, S59G, H106A
# VL: B1 VL with V47L, H55A, G91S, D93S, L94T
# notes: Group III
# B13: 370_D05 (antibody, V domains shown)
# VH: B1 VH with S31D, G50N, S55G, T58K, S59G, H106A
# VL: B1 VL with L30I, S31T, G91S, L94T
# notes: Group III
# B14: 370_H02 (antibody, V domains shown)
# VH: B1 VH
# VL: B1 VL with S31T, V47L, H55A, G91S, D93E, L94S
# notes: Group III
# B15: 371_F11 (antibody, V domains shown)
# VH: B1 VH with D30S, S55G, H106A
# VL: B1 VL with L30I, L33V, V47L, A51V, H55A, G91S
# notes: Group III
# B16: 371_G02 (antibody, V domains shown)
# VH: B1 VH with S33G, S49A, G50S, S55G
# VL: B1 VL with V47L, H55A, G91S
# notes: Group III
# B17: 371_E07 (antibody, V domains shown)
# VH: B1 VH with S49A, S55G, H106A
# VL: B1 VL with L30I, V47L, R54L, H55A, G91S, D93E, L94S
# notes: Group III
# B18: 371_D04 (antibody, V domains shown)
# VH: B1 VH with S31D, S49A, S55G, S59G
# VL: B1 VL with L30V, L33V, V47L, R54L, H55A, G91S, D93E, L94N
# notes: Group III
# B19: 371_C05 (antibody, V domains shown)
# VH: B1 VH with D30S, S31D, S33G, N35H, S49A, G50N, S55G, S59G, H106A
# VL: B1 VL with V47L, H55A, G91S, L94S
# notes: Group III
# B20: 371_B04 (antibody, V domains shown)
# VH: B1 VH with D30S, S55G, T58K, H106A
# VL: B1 VL with A51V, G91S, L94S
# notes: Group III
# B21: 371_F10 (antibody, V domains shown)
# VH: B1 VH with S33G, H106A
# VL: B1 VL with L30S, A51V, H55A, G91S, D93E, L94S
# notes: Group III
# B22: 371_G04 (antibody, V domains shown)
# VH: B1 VH with S55G, T58K, H106A
# VL: B1 VL with V47L, R54L, G91S, D93E, L94S
# notes: Group III
# B23: 371_C01 (antibody, V domains shown)
# VH: B1 VH with D30S, S33G, N35H, G50S, S55G, S59G
# VL: B1 VL with L30V, V47L, G91S, L94N
# notes: Group III
# B24: 371_D02 (antibody, V domains shown)
# VH: B1 VH with S31D, S49A, S55G, T58K, H106A
# VL: B1 VL with L30V, S31T, V47L, H55A, G91S, L94S
# notes: Group III
# B25: 371_B09 (antibody, V domains shown)
# VH: B1 VH with D30S, S49A, S59G
# VL: B1 VL with L33V, A51T, R54L, H55A, G91S, L94T
# notes: Group III
# B26: 370_D01 (antibody, V domains shown)
# VH: B1 VH with D30S, G50S, S55G, S59G, H106A
# VL: B1 VL with V47L, G91S, D93N, L94T
# notes: Group III
# Target: T1, biotinylated goat anti-human kappa light chain
# T1 construct: positive control of the ELISA
# Assay: ELISA, positive control
# Method in brief: (§1)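 mAb binding by ELISA; antigens: hu ACVR2A, mu ACVR2A; pos ctrl biotinylated goat anti-hu kappa LC; neg ctrl hu Fc.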
# Further: test concentration or dose not given here.
row,optical density [OD],Binder
1,3.69,B1
2,3.3,B2
3,3.58,B3
4,3.48,B4
5,3.48,B5
6,3.44,B6
7,3.51,B7
8,3.49,B8
9,3.68,B9
10,3.48,B10
11,3.56,B11
12,3.45,B12
13,3.49,B13
14,3.67,B14
15,3.68,B15
16,3.67,B16
17,3.44,B17
18,3.3,B18
19,3.08,B19
20,2.27,B20
21,3.53,B21
22,3.54,B22
23,3.59,B23
24,3.58,B24
25,2.7,B25
26,3.66,B26

# Target: T2, mouse ACVR2A (mouse, UniProt P27038 20-135, limits assumed)
# T2 construct: coated antigen of the initial ELISA
# Assay: ELISA
# Method in brief: as §1
# T2 sequence (P27038 20-135 limits assumed): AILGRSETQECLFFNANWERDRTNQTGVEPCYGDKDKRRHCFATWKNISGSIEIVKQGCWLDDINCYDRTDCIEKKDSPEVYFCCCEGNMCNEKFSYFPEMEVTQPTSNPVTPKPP
row,optical density [OD],Binder
1,2.45,B1
2,1.25,B2
3,3.07,B3
4,2.4,B4
5,2.78,B5
6,3.03,B6
7,3.25,B7
8,3.05,B8
9,3.2,B9
10,1.94,B10
11,3.08,B11
12,2.25,B12
13,3.12,B13
14,3.39,B14
15,3.25,B15
16,3.06,B16
17,3.35,B17
18,1.29,B18
19,1.35,B19
20,3.13,B20
21,2.31,B21
22,3.58,B22
23,2.27,B23
24,2.99,B24
25,0.827,B25
26,3.17,B26

# Target: T3, human ACVR2A (human, UniProt P27037 20-135, limits assumed)
# T3 construct: coated antigen of the initial ELISA; also called activin receptor, type II A
# Assay: ELISA
# Method in brief: as §1
# T3 sequence (P27037 20-135 limits assumed): as the sequence (P27038 20-135 limits assumed) above, with R20K, I73V counted along it
row,optical density [OD],Binder
1,2.08,B1
2,1.14,B2
3,2.75,B3
4,2.56,B4
5,2.81,B5
6,3,B6
7,3,B7
8,3.06,B8
9,3.1,B9
10,1.63,B10
11,2.92,B11
12,2.05,B12
13,2.98,B13
14,3.3,B14
15,3.04,B15
16,3.12,B16
17,3.09,B17
18,1.02,B18
19,1.24,B19
20,2.46,B20
21,2.34,B21
22,3.62,B22
23,2,B23
24,2.94,B24
25,0.825,B25
26,3.14,B26
